Experimental data: PMC3349575

Each substance was assayed against XD-CGFP fusion protein (X domain of the measles virus phosphoprotein fused to the C-terminal half of eGFP) (UniProt P03422) (assay: split-GFP reassembly assay (fluorescence to OD600 ratio of E. coli co-expressing NGFP-N_TAIL and XD-CGFP)). Conditions: parent: est. 1.1; read off a plot.
Sequence of UniProt P03422 (P03422 459-507): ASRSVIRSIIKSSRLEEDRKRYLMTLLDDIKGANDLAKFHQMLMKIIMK
“NGFP-wtN_TAIL fusion protein (C-terminal domain of the measles virus nucleoprotein fused to the N-terminal half of eGFP) mutant 1 (substitutions not printed)” was tested, and the response (x10^4 fluorescence intensity / OD600) was 1.1.
“NGFP-wtN_TAIL fusion protein (C-terminal domain of the measles virus nucleoprotein fused to the N-terminal half of eGFP) mutant 2 (substitutions not printed)” was tested, and the response (x10^4 fluorescence intensity / OD600) was 0.9.
With “NGFP-wtN_TAIL fusion protein (C-terminal domain of the measles virus nucleoprotein fused to the N-terminal half of eGFP) mutant 3 (substitutions not printed)” the response (x10^4 fluorescence intensity / OD600) was 0.54.
